Test results from US20230203156A1 (published 2023).
Read-outs that look alike come from different tables or passages of the source.

Key:
[1] = biological target: cynomolgus MDR1 (Macaca fascicularis); assay: FACS binding, 293T-cB1 cells
[2] = biological target: T1, human MDR1 (multidrug resistance protein 1) (UniProt P08183 1-1280); assay: FACS binding, 293T-hB1 cells
human CD47 [3] = biological target: T2, human CD47 (human, UniProt Q08722 19-323); assay: FACS binding, C6-hKT14 cells
cynomolgus CD47 = biological target: T3, cynomolgus CD47 (cynomolgus, UniProt A0A5F8AK49 19-323); assay: FACS binding, C6-cKT14 cells
T3 chain: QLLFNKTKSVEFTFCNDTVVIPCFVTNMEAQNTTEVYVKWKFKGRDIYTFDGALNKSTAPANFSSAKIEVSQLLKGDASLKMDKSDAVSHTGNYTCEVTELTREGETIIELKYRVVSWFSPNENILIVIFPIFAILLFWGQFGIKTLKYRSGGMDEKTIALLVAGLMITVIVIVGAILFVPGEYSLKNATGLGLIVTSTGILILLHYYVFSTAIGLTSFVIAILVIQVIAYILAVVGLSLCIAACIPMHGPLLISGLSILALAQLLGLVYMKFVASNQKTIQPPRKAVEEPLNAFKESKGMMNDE

[4] = biological target: T1, human MDR1 (multidrug resistance …); assay: FACS binding, 293T-hB1 cells; remark: listed apart in the source
[5] = biological target: cynomolgus MDR1 (Macaca fascicularis); assay: FACS binding, 293T-cB1 cells; remark: listed apart in the source
[6] = biological target: T1, human MDR1 (multidrug resistance …); assay: FACS binding, 293T cells expressing human MDR1
human CD47 [7] = biological target: T2, human CD47; assay: cell binding (flow cytometry, C6 cells)
human CD47 [8] = biological target: T2, human CD47; assay: FACS binding, C6 cells expressing human CD47

Chain of cynomolgus MDR1 (Macaca fascicularis) (chain, as listed by the source): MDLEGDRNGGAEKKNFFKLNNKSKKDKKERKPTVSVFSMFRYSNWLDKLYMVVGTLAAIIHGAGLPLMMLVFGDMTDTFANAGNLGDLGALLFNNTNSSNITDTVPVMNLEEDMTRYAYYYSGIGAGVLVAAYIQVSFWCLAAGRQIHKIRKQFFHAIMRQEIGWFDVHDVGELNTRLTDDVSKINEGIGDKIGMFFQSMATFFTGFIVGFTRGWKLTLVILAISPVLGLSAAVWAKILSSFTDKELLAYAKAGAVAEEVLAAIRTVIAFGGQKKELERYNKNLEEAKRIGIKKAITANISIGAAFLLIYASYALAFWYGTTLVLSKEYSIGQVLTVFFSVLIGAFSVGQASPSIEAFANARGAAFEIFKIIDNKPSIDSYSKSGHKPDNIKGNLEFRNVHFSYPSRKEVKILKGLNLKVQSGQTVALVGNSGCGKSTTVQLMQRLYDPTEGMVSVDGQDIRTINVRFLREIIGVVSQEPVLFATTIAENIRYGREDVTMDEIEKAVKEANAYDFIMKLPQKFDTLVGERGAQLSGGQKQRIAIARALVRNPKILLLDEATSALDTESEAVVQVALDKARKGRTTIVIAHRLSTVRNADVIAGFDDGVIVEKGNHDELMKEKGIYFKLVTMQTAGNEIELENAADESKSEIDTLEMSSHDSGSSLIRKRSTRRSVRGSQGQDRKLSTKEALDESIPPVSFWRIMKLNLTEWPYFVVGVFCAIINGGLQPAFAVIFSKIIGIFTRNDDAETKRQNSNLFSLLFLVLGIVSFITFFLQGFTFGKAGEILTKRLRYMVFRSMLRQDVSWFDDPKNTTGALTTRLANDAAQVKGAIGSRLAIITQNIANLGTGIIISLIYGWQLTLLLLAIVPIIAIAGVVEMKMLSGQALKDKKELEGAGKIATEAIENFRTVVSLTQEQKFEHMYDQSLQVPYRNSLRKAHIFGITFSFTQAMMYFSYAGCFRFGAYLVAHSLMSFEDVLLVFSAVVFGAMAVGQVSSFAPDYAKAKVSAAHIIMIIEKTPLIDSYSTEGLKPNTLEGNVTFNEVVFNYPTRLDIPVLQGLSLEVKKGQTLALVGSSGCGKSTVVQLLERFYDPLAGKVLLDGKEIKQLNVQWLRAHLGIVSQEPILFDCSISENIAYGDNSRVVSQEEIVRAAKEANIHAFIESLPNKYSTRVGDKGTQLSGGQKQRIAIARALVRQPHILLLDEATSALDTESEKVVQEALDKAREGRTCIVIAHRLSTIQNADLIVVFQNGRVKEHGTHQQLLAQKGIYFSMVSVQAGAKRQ

B1: B1.261 (antibody, V domains shown)
VH: QVQLKESGPGLVAPSQSLSITCTVSGFSLTSYGVHWVRQPPGKGLEWLVVIWSDGSTTYNSALKSRLSISKDNSKSQVFLKMNSLQIDDTAMYYCARHGRWLLQRGGAMDYWGQGTSVTVSS
VL: DVVMTQAPKFMSTSVGDRVSVTCRASQNVGSYIAWYQQKLGQSPKALIYSASYRCSGVPDRFTGSGAGTDFTLTIRNVQSEDLAEYFCQQYNSYPLTFGGGTKLEIK
**Q.** What does the source list for B1?
**A.** Kd [1]: 371 nM; Kd [2]: 188 nM

B2: B1.28DD/KT14KK/28 (antibody)
chain 1: EVKLVESGGGLVKPGGSLKLSCAASGFTFGLYTMSWVRQTPERRLEWVATISSGGSNTYYPDSVKGRFTISRDNAKNNLFLQMNSLRSEDTALYYCARYYRYDAWFAYWGQGTLVTVSS
chain 2: QVQLVQSGAEVKKPGASVKVSCKASGYTFTNYNMHWVRQAPGQRLEWMGTIYPGNDDTSYNQKFKDRVTITADTSASTAYMELSSLRSEDTAVYYCARGGYRAMDYWGQGTLVTVSS
chain 3: DVLLTQTPLSLPVSLGDQASISCRSSQNIVHSTGNTYLDWYLQKPGQSPKLLIYKVSNRFSGVPDRFSGSGSGTDFTLKISRVEAEDLGVYFCFQGSHIPRTFGGGTKLEIK
**Q.** How did the EC50 (human CD47 [3]) turn out when B2 was run?
**A.** 40 nM

**Q.** What about the EC50 (cynomolgus CD47) of the same binder?
**A.** 83 nM

B3: B1.28 (antibody, V domains shown)
VH: EVKLVESGGGLVKPGGSLKLSCAASGFTFGLYTMSWVRQTPERRLEWVATISSGGSNTYYPDSVKGRFTISRDNAKNNLFLQMNSLRSEDTALYYCARYYRYDAWFAYWGQGTLVTVSS
VL: DVLLTQTPLSLPVSLGDQASISCRSSQNIVHSTGNTYLDWYLQKPGQSPKLLIYKVSNRFSGVPDRFSGSGSGTDFTLKISRVEAEDLGVYFCFQGSHIPRTFGGGTKLEIK
**Q.** B3 was tested. Which Kd [4] did it give?
**A.** 17 nM

**Q.** What about the Kd [5] of the same binder?
**A.** 97 nM

**Q.** What about the EC50 [6] of the same binder?
**A.** 4.8 nM

B4: B1.261.huH2(VH3)-huL1 (antibody, V domains shown)
VH: EVQLVESGGGLIQPGGSLRLSCAVSGFSLTSYGVHWVRQPPGKGLEWLVVIWSDGSTTYNSALKSRLTISKDNSKNTVYLQMNSLRAEDTAVYYCARHGRWLLQRGGAMDYWGQGTMVTVSS
VL: DVQMTQSPSSLSASVGDRVTITCRASQNVGSYIAWYQQKPGKSPKALIYSASYRSSGVPSRFSGSGAGTDFTLTISSLQPEDFATYFCQQYNSYPLTFGGGTKLEIK
**Q.** Which results are given for B4?
**A.** Kd [1]: 114 nM; Kd [2]: 50 nM

B5: KT14.B6H12hu scFv-B1.261.hu1 (bispecific antibody)
scFv: not shown
heavy: EVQLQESGPGLVKPSETLSLTCTVSGFSLTSYGVHWVRQPPGKGLEWLVVIWSDGSTTYNSALKSRLTISKDNSKNQVSLKLSSVTAADTAVYYCARHGRWLLQRGGAMDYWGQGTMVTVSSASTKGPSVFPLAPSSKSTSGGTAALGCLVKDYFPEPVTVSWNSGALTSGVHTFPAVLQSSGLYSLSSVVTVPSSSLGTQTYICNVNHKPSNTKVDKRVEPKSCDKTHTCPPCPAPELLGGPSVFLFPPKPKDTLMISRTPEVTCVVVDVSHEDPEVKFNWYVDGVEVHNAKTKPREEQYNSTYRVVSVLTVLHQDWLNGKEYKCKVSNKALPAPIEKTISKAKGQPREPQVCTLPPSREEMTKNQVSLSCAVKGFYPSDIAVEWESNGQPENNYKTTPPVLDSDGSFFLVSKLTVDKSRWQQGNVFSCSVMHEALHNHYTQKSLSLSPGK
light: DVQMTQSPSSLSASVGDRVTITCRASQNVGSYIAWYQQKPGKSPKALIYSASYRSSGVPSRFSGSGAGTDFTLTISSLQPEDFATYFCQQYNSYPLTFGGGTKLEIKRTVAAPSVFIFPPSDEQLKSGTASVVCLLNNFYPREAKVQWKVDNALQSGNSQESVTEQDSKDSTYSLSSTLTLSKADYEKHKVYACEVTHQGLSSPVTKSFNRGEC
**Q.** How did the EC50 (human CD47 [7]) turn out when B5 was run?
**A.** 26 nM

B6: KT14.5F9hu scFv-B1.28.hu13 (bispecific antibody)
scFv: not shown
heavy: EVQLVESGGGLVKPGGSLRLSCAASGFTFGLYTMSWVRQAPGKGLEWVATISSGGSNTYYPDSVKGRFTISRDNAKNSLYLQMNSLRAEDTAVYYCARYYRYDAWFAYWGQGTLVTVSSASTKGPSVFPLAPSSKSTSGGTAALGCLVKDYFPEPVTVSWNSGALTSGVHTFPAVLQSSGLYSLSSVVTVPSSSLGTQTYICNVNHKPSNTKVDKRVEPKSCDKTHTCPPCPAPELLGGPSVFLFPPKPKDTLMISRTPEVTCVVVDVSHEDPEVKFNWYVDGVEVHNAKTKPREEQYNSTYRVVSVLTVLHQDWLNGKEYKCKVSNKALPAPIEKTISKAKGQPREPQVCTLPPSREEMTKNQVSLSCAVKGFYPSDIAVEWESNGQPENNYKTTPPVLDSDGSFFLVSKLTVDKSRWQQGNVFSCSVMHEALHNHYTQKSLSLSPGK
light: EVVLTQSPATLSLSPGERATLSCRSSQNIVHSTGNTYLDWYQQKPGQSPRLLIYKVSNRFSGVPARFSGSGSGTDFTLTISSLEPEDFAVYYCFQGSHIPRTFGGGTKLEIKRTVAAPSVFIFPPSDEQLKSGTASVVCLLNNFYPREAKVQWKVDNALQSGNSQESVTEQDSKDSTYSLSSTLTLSKADYEKHKVYACEVTHQGLSSPVTKSFNRGEC
**Q.** How did the EC50 (human CD47 [8]) turn out when B6 was run?
**A.** 1.4 nM

B7: KT14.B6H12hu scFv-B1.28.hu13 (bispecific antibody)
scFv: not shown
heavy: EVQLVESGGGLVKPGGSLRLSCAASGFTFGLYTMSWVRQAPGKGLEWVATISSGGSNTYYPDSVKGRFTISRDNAKNSLYLQMNSLRAEDTAVYYCARYYRYDAWFAYWGQGTLVTVSSASTKGPSVFPLAPSSKSTSGGTAALGCLVKDYFPEPVTVSWNSGALTSGVHTFPAVLQSSGLYSLSSVVTVPSSSLGTQTYICNVNHKPSNTKVDKRVEPKSCDKTHTCPPCPAPELLGGPSVFLFPPKPKDTLMISRTPEVTCVVVDVSHEDPEVKFNWYVDGVEVHNAKTKPREEQYNSTYRVVSVLTVLHQDWLNGKEYKCKVSNKALPAPIEKTISKAKGQPREPQVCTLPPSREEMTKNQVSLSCAVKGFYPSDIAVEWESNGQPENNYKTTPPVLDSDGSFFLVSKLTVDKSRWQQGNVFSCSVMHEALHNHYTQKSLSLSPGK
light: EVVLTQSPATLSLSPGERATLSCRSSQNIVHSTGNTYLDWYQQKPGQSPRLLIYKVSNRFSGVPARFSGSGSGTDFTLTISSLEPEDFAVYYCFQGSHIPRTFGGGTKLEIKRTVAAPSVFIFPPSDEQLKSGTASVVCLLNNFYPREAKVQWKVDNALQSGNSQESVTEQDSKDSTYSLSSTLTLSKADYEKHKVYACEVTHQGLSSPVTKSFNRGEC
**Q.** With B7 as the binder, how does the EC50 (human CD47 [8]) read?
**A.** 1.5 nM
